The target in the assay is T1, human FXR^aa187–472 fused to GST (human, UniProt Q96RI1-2 187-472).
T1 construct: Detected in the TR-FRET assay by europium-labelled anti-GST; also called human FXR-LBD; hFXR; source: purified
T1 sequence (looked up): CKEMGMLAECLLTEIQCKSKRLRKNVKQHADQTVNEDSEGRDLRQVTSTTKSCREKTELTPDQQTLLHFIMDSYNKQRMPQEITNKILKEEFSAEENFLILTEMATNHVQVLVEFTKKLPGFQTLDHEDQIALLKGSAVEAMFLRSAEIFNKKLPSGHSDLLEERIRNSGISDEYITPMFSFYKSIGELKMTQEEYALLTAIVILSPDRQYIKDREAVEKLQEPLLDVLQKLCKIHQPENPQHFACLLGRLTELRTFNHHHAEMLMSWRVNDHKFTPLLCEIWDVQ
The assay can be described thus: FRET or BRET; homogeneous TR-FRET: biotinylated SRC-1 peptide (0.4 µM), 200 ng streptavidin-allophycocyanin, 6 ng europium-labelled anti-GST and 2.5 ng GST-FXR-LBD in 25 µL of 20 mM Tris/HCl pH 7.5, 5 mM MgCl2, 60 mM KCl, 1 mM DTT, 0.9 g/L BSA; 60 min incubation; FXR agonist (GW4064, PX20606 or PX20350) titrated; duplicates. Conditions: both partners purified. In general terms: BRET reads energy transfer from a luciferase to a nearby fluorophore.

B1: biotinylated SRC-1 peptide b-[residues removed]-COOH (peptide)
peptide: CPSSHSSLTERHKILHRLLQEGSPS
HELM: PEPTIDE1{[O=C1N[C@H]2[C@H](CS[C@H]2CCCCC(=O)[*:2])N1].C.P.S.S.H.S.S.L.T.E.R.H.K.I.L.H.R.L.L.Q.E.G.S.P.S}$$$$V2.0
SMILES: CC[C@H](C)[C@H](NC(=O)[C@H](CCCCN)NC(=O)[C@H](Cc1c[nH]cn1)NC(=O)[C@H](CCCNC(=N)N)NC(=O)[C@H](CCC(=O)O)NC(=O)[C@@H](NC(=O)[C@H](CC(C)C)NC(=O)[C@H](CO)NC(=O)[C@H](CO)NC(=O)[C@H](Cc1c[nH]cn1)NC(=O)[C@H](CO)NC(=O)[C@H](CO)NC(=O)[C@@H]1CCCN1C(=O)[C@H](CS)NC(=O)CCCC[C@@H]1SC[C@@H]2NC(=O)N[C@@H]21)[C@@H](C)O)C(=O)N[C@@H](CC(C)C)C(=O)N[C@@H](Cc1c[nH]cn1)C(=O)N[C@@H](CCCNC(=N)N)C(=O)N[C@@H](CC(C)C)C(=O)N[C@@H](CC(C)C)C(=O)N[C@@H](CCC(N)=O)C(=O)N[C@@H](CCC(=O)O)C(=O)NCC(=O)N[C@@H](CO)C(=O)N1CCC[C@H]1C(=O)N[C@@H](CO)C(=O)O
notes: Coupled to streptavidin-allophycocyanin through its biotin in the assay
For the molecule B1, the binding result is reported as “binds”.

(Values after PMC3467263, “FXR Controls the Tumor Suppressor NDRG2 and FXR Agonists Reduce Liver Tumor Growth and Metastasis in an Orthotopic Mouse Xenograft Model” (PLoS ONE, 2012).)
